Results published in US7531345B2, “Mutations for enhanced tyrosine production” (Massachusetts Institute of Technology, priority 2005, dated 2009).
Several values for one entry are separate records, joined by “and”; a condition that tells them apart may be missing. Identical values can stand only once.

Assays:
E. coli DH5α = assay: Growth of E. coli DH5α strains in the presence of m-fluoro-D,L-tyrosine (OD600); format: cell-based, Escherichia coli
Experimental: The growth in E. coli DH5α strains harboring eight different plasmids are presented: −, pZE21::tyr^WT; +, pZE21::tyrA^fbr-5; ▪, pZE21::tyrA^fbr-7; ▴, pZE21::tyrA^fbr-10; ♦, pZE21::tyrA^fbr-13; ▾, pZE21::tyrA^fbr-15; ? , pZE21::tyrA^fbr-18; ●, pZE21::tyrA^fbr-20. […] E. coli cells were cultivated in MOPS-buffered minimal medium containing m-fluoro-D,L-tyrosine. After incubation at 37° C. at 225 rpm on a rotary shaker for 20 h, the optical density at 600 nm (OD600) was measured.
Nucleotide analogue mutagenesis was carried out in the presence of 2 and 20 μM […] (8-oxo-dGTP) and 6-(2-deoxy-β-D-ribofuranosyl)-3,4-dihydro-8H-pyrimido-[4,5-c][1,2]oxazin-7-one (dPTP) (Zaccolo, M., D. et al. 1996, J. Mol. Biol. 255: 589-603). Using the plasmid pZE21::tyrA^WT as template, 10, 20 and 30 amplification cycles with the primers mentioned above were performed. The 1.1 kbp PCR products were gel-purified, and the mutated tyrA genes were amplified in a second PCR reaction under regular conditions. Subsequently, the gel-purified DNA fragments were pooled, digested with KpnI and MluI, ligated into pZE21-MCS1, and transformed to highly competent E. coli DH5α cells (Invitrogen). Putative tyrA^fbr mutants were selected on minimal medium agar plates with 20 μg/ml kanamycin and 2 mM m-flouro-D,L-tyrosine.
Mutants of the tyrA gene from E. coli K12 were generated by error-prone PCR and cloned into pZE21-MCS1. […] From 621 obtained tyrA^fbr mutants, seven mutants were chosen for detailed analyses.

[1] = tested on: chorismate mutase (CM) activity of TyrA (CM/PDH) protein; assay: Chorismate mutase (CM) activity with purified TyrA proteins; format: biochemical, Escherichia coli K12
Experimental: (§1) For high expression levels of the tyrA^fbr genes, the respective pET30::tyrA^fbr plasmids were transformed to E. coli BL21 (DE3) competent cells (Novagen). The cells were cultivated in LB medium plus 20 μg/ml kanamycin and 1 mM isopropyl-β-D-thiogalactoside (IPTG). After reaching an OD600 of ˜1, the cells were collected by centrifugation, resuspended in binding buffer (20 mM Tris/HCl, 0.5 M NaCl, 5 mM imidazole, pH 7.9), and disrupted by sonication with a Branson Sonifier 450. The cell extract was centrifugated at 10,000×g for 15 min, and the supernatant was filtered through a 0.45 μm syringe filter (PALL Gelman Laboratory). The native His6-tagged TyrA protein was purified by pre-charged His-Bind column chromatography according to the manufacturer's protocol (Novagen). The eluated protein solution was desalted by Econo-Paco®10DG columns (Biorad) and concentrated by Centriprep®YM10 centrifugal ultrafiltration devices (Millipore). Expression and purification steps were controlled by SDS-PAGE (Laemmli, U. K. 1970. Nature 227: 680-685). […]
CM activities were determined spectrophotometrically based on the formation of phenylpyruvate by treatment with HCl (Davidson, B. E., and G. S. Hudson. 1987. Methods Enzymol. 142: 440-450). […] The samples were alkalized with 1 ml of 2.5 M NaOH, and the absorbance was measured at 320 nm according to a blank sample without enzyme. […]

[2] = molecular target: prephenate dehydrogenase (PDH) activity of TyrA (CM/PDH) protein (Escherichia coli, UniProt P07023); assay: PDH activity measurement with purified TyrA proteins (NADH formation, 340 nm); format: biochemical, Escherichia coli K12; details: 20 μM tyrosine, purified protein (FIG. 2)
Experimental: as §1
(§2) PDH activities of purified TyrA proteins were determined spectrophotometrically according to NADH formation (Davidson, B. E., and G. S. Hudson. 1987. Methods Enzymol. 142: 440-450). […] The reaction was started by addition of approximately 0.1 μg of enzyme which corresponded to 5-20 μl of enzyme solution, and the absorbance at 340 nm was followed for 2 min. […]

[3] = tested on: prephenate dehydrogenase (PDH) activity of TyrA (CM/PDH) protein; assay: as above; format: biochemical, Escherichia coli K12; details: purified His6-tagged TyrA protein, absence of tyrosine
Experimental: as §1, §2

Chain of prephenate dehydrogenase (PDH) activity of TyrA (CM/PDH) protein (Escherichia coli, UniProt P07023) (P07023 whole entry): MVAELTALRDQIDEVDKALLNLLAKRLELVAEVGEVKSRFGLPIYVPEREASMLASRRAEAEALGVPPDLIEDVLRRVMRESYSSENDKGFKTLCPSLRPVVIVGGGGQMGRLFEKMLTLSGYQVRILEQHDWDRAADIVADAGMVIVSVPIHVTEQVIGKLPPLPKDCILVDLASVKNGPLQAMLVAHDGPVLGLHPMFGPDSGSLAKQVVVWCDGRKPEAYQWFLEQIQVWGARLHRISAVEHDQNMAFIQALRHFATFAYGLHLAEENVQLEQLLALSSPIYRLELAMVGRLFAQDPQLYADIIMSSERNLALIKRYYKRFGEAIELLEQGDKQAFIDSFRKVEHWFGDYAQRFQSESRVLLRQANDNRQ

NC(Cc1ccc(O)c(F)c1)C(=O)O (racemic) [m-fluoro-D,L-tyrosine]
concentration of m-fluoro-D,L-tyrosine inhibiting growth (E. coli DH5α; E. coli DH5α without plasmid): ≥ 0.1 mM | effect on growth of E. coli DH5α harboring plasmid pZE21::tyrA^WT (E. coli DH5α; selection at ≧2 mM m-fluoro-D,L-tyrosine): inhibits growth

N[C@@H](Cc1ccc(O)cc1)C(=O)O [L-tyrosine]
effect of L-tyrosine on growth inhibited by m-fluoro-D,L-tyrosine (E. coli DH5α; E. coli DH5α without plasmid, equimolar amounts of L-tyrosine): restored growth

TyrA^WT: wild-type chorismate mutase/prephenate dehydrogenase (T-protein) of E. coli K12, His6-tagged, purified
CM activity, 100 μM Tyrosine ([1]; 100 μM tyrosine in the presence of 100 μM NAD+): 1.23 U/mg | CM activity, 0 μM Tyrosine ([1]; absence of tyrosine): 1.32 U/mg | specific PDH activity in the presence of tyrosine, relative to activity in the absence of tyrosine [2]: less than 10% | PDH activity, 0 μM Tyrosine [3]: 29.8 U/mg and 29.80 U/mg
